Reference: article PMC7502788

Tests used:
Test in all cases: BLI
Anti-mTfRC 8D3 (mouse) = molecular target: Anti-mTfRC 8D3 (mouse)
[1] = molecular target: TBTI_13C3x8D3 HC_N31A_mIgG1 (mouse)
[2] = molecular target: TBTI_13C3x8D3 HC_S101A_mIgG1 (mouse)
[3] = molecular target: TBTI_13C3x8D3 HC_T100A_mIgG1 (mouse)
[4] = molecular target: TBTI_13C3x8D3 HC_Y52A_mIgG1 (mouse)
[5] = molecular target: TBTI_13C3x8D3 HC_Y53A_mIgG1 (mouse)
[6] = molecular target: TBTI_13C3x8D3 LC_G68I_mIgG1 (mouse)
[7] = molecular target: TBTI_13C3x8D3 LC_N31A_mIgG1 (mouse)
[8] = molecular target: TBTI_13C3x8D3 LC_N93A_mIgG1 (mouse)
[9] = molecular target: TBTI_13C3x8D3 LC_Y49A_mIgG1 (mouse)
[10] = molecular target: TBTI_13C3x8D3 LC_Y92A_mIgG1 (mouse)
[11] = molecular target: TBTI_13C3x8D3_HC_N31A/LC_Y92A_mIgG1 (mouse)
[12] = molecular target: TBTI_13C3x8D3_HC_S101A/LC_Y92A_mIgG1 (mouse)
[13] = molecular target: TBTI_13C3x8D3_HC_Y52A-S101A/LC_Y49A-Y92A-mIgG1 (mouse)
[14] = molecular target: TBTI_13C3x8D3_HC_Y52A/LC_Y49A_mIgG1 (mouse)
[15] = molecular target: TBTI_13C3x8D3_HC_Y52A/LC_Y92A_mIgG1 (mouse)
[16] = molecular target: TBTI_13C3x8D3_mIgG1 (mouse)
[17] = molecular target: TBTI_8D3x13C3_mIgG1 (mouse)

Work on “mouse transferrin receptor protein (mTfR), Sino Biological 50741-M07H (from UniProt Q62351 89-763)” yielded a Kd (Anti-mTfRC 8D3 (mouse)) of 0.54 nM, a koff (Anti-mTfRC 8D3 (mouse)) of 3.9e-05 s⁻¹ and a kon (Anti-mTfRC 8D3 (mouse)) of 71300 M⁻¹ s⁻¹. It also gave a Kd [1] of 6.61 nM, a koff [1] of 0.000159 s⁻¹ and a Kd [2] of 8.96 nM. The koff [2] was 0.000258 s⁻¹, the kon [2] was 28800 M⁻¹ s⁻¹ and the Kd [3] was 3.83 nM. It also gave a koff [3] of 0.000233 s⁻¹, a kon [3] of 60800 M⁻¹ s⁻¹ and a Kd [4] of 17.9 nM. It also gave a koff [4] of 0.000521 s⁻¹, a kon [4] of 29200 M⁻¹ s⁻¹ and a Kd [5] of 4.25 nM. The koff [5] was 0.000124 s⁻¹, the kon [5] was 29200 M⁻¹ s⁻¹ and the Kd [6] was 3.84 nM. The koff [6] was 0.000105 s⁻¹, the kon [6] was 27200 M⁻¹ s⁻¹ and the Kd [7] was 2.18 nM. The koff [7] was 5.4e-05 s⁻¹, the Kd [8] was 4.16 nM and the koff [8] was 0.000112 s⁻¹. The kon [8] was 27100 M⁻¹ s⁻¹, the Kd [9] was 4.46 nM and the koff [9] was 9.9e-05 s⁻¹. For the same substance, the kon [9] was 22100 M⁻¹ s⁻¹, the Kd [10] was 6.88 nM and the koff [10] was 0.000149 s⁻¹. For the same substance, the kon [10] was 21700 M⁻¹ s⁻¹, the koff [11] was 0.000553 s⁻¹ and the kon [11] was 62100 M⁻¹ s⁻¹. It also gave a Kd [12] of 6.94 nM, a koff [12] of 0.000357 s⁻¹ and a kon [12] of 51400 M⁻¹ s⁻¹. The Kd [13] was 19.6 nM, the koff [13] was 0.00111 s⁻¹ and the kon [13] was 32600 M⁻¹ s⁻¹. It also gave a koff [14] of 0.000689 s⁻¹, a kon [14] of 793000 M⁻¹ s⁻¹ and a Kd [15] of 29.2 nM. It also gave a koff [15] of 0.000734 s⁻¹, a kon [15] of 25200 M⁻¹ s⁻¹ and a Kd [16] of 2.83 nM. It also gave a koff [16] of 9.9e-05 s⁻¹, a kon [16] of 35300 M⁻¹ s⁻¹ and a Kd [17] of 0.4 nM. The koff [17] was 2.9e-05 s⁻¹ and the kon [17] was 74400 M⁻¹ s⁻¹.
